What all share (assay): cell-based or functional assay
In assay [1] the target is T1, IL-18 receptor (IL-18Rα/IL-18Rβ) overexpressed on HEK-Blue IL-18 cells (Homo sapiens (Human), UniProt Q13478 19-541; O95256 20-599).
T1 sequence 1: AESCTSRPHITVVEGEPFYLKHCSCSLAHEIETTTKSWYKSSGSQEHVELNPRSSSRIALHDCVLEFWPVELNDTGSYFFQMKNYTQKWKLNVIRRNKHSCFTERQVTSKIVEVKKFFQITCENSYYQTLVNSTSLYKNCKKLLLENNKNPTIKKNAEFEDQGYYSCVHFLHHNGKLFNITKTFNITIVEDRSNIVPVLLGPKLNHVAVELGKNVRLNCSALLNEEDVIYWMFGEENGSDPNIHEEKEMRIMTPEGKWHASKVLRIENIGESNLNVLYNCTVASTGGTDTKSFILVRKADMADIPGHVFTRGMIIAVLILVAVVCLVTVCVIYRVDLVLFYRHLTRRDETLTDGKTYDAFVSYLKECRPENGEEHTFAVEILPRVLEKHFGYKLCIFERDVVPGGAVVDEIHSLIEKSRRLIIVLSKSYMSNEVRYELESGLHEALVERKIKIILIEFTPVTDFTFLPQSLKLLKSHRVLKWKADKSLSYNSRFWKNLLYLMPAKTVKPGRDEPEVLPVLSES
T1 sequence 2: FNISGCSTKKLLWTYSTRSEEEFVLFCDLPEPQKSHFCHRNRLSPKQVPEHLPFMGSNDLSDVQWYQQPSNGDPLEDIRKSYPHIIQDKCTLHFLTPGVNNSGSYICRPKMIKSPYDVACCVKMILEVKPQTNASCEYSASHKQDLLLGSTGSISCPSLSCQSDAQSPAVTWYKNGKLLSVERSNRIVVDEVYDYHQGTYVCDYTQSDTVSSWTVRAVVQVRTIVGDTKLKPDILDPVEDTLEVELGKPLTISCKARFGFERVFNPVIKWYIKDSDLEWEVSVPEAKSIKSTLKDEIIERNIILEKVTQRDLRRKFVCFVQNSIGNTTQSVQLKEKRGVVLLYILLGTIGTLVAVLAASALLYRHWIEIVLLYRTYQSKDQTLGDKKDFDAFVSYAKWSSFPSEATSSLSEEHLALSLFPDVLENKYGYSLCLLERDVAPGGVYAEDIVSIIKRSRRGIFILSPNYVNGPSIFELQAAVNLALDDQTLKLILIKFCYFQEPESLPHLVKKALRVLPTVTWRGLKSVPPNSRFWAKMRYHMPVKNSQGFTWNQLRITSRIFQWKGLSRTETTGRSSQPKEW

For assay [2], the target named is T1, IL-18 receptor (IL-18Rα/IL-18Rβ) …. This is another data set of the same source.
For assay [3] the target is unchanged. This is another data set of the same source.
Assay [4] shares this target. The source holds these as a separate data set.

Like-named read-outs stand apart in the source and are kept apart here.

B1: DGL160 (bispecific antibody)
heavy 1: QVQLVESGGGLVQAGGSLRLSCAASGRTFSSYTMGWFRQAPGKEREFVAAISWSAGRTYYADSVKGRFTISRDNAKNTVYLQMNSLKPEDTAVYFCAAEEAPDWAPIDCSGYGCLSLYDYWGQGTQVTVSSDKGPSVFPLAPEPKSSEVQLVESGGGLVQAGGSLRLSCAASGRTFRNYHMGWFRQAPGQEREFVAAISSSGGKTSYPDSVNGRFTISRDNAKNTVYLQMNNLKVEDTAVYYCAADPRYWVAAGGSEPENVEVWGQGTLVTVSSDKTHTCPPCPAPEAAGGPSVFLFPPKPKDTLMISRTPEVTCVVVDVSHEDPEVKFNWYVDGVEVHNAKTKPREEQYNSTYRVVSVLTVLHQDWLNGKEYKCKVSNKALPAPIEKTISKAKGQPREPQVCTLPPSRDELTKNQVSLSCAVKGFYPSDIAVEWESNGQPENNYKTTPPVLDSDGSFFLVSKLTVDKSRWQQGNVFSCSVMHEALHNHYTQKSLSLSPG
heavy 2: not shown
As to B1, in assay [1], the “HEK-Blue IL-18: Abs 405” value turned out to be 0.16 Abs and the “HEK-Blue IL-18: Fold over Background” value stood at 1.3 fold.

B2: DGL163 (bispecific antibody)
heavy 1: QVQLVESGGGLVQAGGSLRLSCAASGRTFSSYNMGWFRQAPGKERESVAAISWSGGSSYYADSVKGRFTISRDNAKPTVYLQMNSLKPEDTAVYYCAADRDSEEWDGSSWFFKSDYWGQGTQVTVSSDKGPSVFPLAPEPKSSQVQLVESGGGLVQTGGPLRLSCAASGGTFSRYTMGWFRQAPGKEREYVAAISWRGSSIYYADAVKGRFTISRDSAKSTVYLQMNNLNSDDTAVYYCAADRTDLPRNAGEYGYWGQGTQVTVSSDKTHTCPPCPAPEAAGGPSVFLFPPKPKDTLMISRTPEVTCVVVDVSHEDPEVKFNWYVDGVEVHNAKTKPREEQYNSTYRVVSVLTVLHQDWLNGKEYKCKVSNKALPAPIEKTISKAKGQPREPQVCTLPPSRDELTKNQVSLSCAVKGFYPSDIAVEWESNGQPENNYKTTPPVLDSDGSFFLVSKLTVDKSRWQQGNVFSCSVMHEALHNHYTQKSLSLSPG
heavy 2: not shown
Consider B2, for which, in assay [1], the “HEK-Blue IL-18: Abs 405” value came to 0.36 Abs and the “HEK-Blue IL-18: Fold over Background” value is 3 fold.

B3: DGL221 (bispecific antibody)
heavy 1: QVQLVESGGGLVQAGGSLRLSCAASGRTFSKHAMGWFRQAPGKEREFVAAIDWSGGSTYYADSVKGRFTISRDNAKNTVYLQMDSLKPEDTAVYYCAADSYTDYAQLWLPELESEYDYWGQGTLVTVSSGGGGSGGGGSGGGGSGGGGSCPPCPAPEAAGAPSVFLFPPKPKDTLMISRTPEVTCVVVDVSHEDPEVKFNWYVDGVEVHNAKTKPREEQYNSTYRVVSVLTVLHQDWLNGKEYKCKVSNKALPAPIEKTISKAKGQPREPQVCTLPPSRDELTKNQVSLSCAVKGFYPSDIAVEWESNGQPENNYKTTPPVLDSDGSFFLVSKLTVDKSRWQQGNVFSCSVMHEALHNHYTQKSLSLSPGWSHPQFEK
heavy 2: not shown
For B3, in assay [2], the “HEK-Blue IL-18: Abs 405 at 100 nM” value turned out to be 0.6 Abs and the “HEK-Blue IL-18: Fold over Background” value was 2.4 fold.

B4: DGL162 (bispecific antibody)
heavy 1: QVQLVESGGGLVQAGGSLRLSCAASGRTFSKHAMGWFRQAPGKEREFVAAIDWSGGSTYYADSVKGRFTISRDNAKNTVYLQMDSLKPEDTAVYYCAADSYTDYAQLWLPELESEYDYWGQGTQVTVSSDKGPSVFPLAPEPKSSQVQLQESGGGLVQAGGSLKLSCQASGLTFKRNTMGWFRQAPGKEREFVAHFLWTGGETDYADAVKGRFTISRDNAKNTVYLQMNSLKPEDTAVYFCAANYAGYRIDGYQYWGQGTQVTVSSDKTHTCPPCPAPEAAGGPSVFLFPPKPKDTLMISRTPEVTCVVVDVSHEDPEVKFNWYVDGVEVHNAKTKPREEQYNSTYRVVSVLTVLHQDWLNGKEYKCKVSNKALPAPIEKTISKAKGQPREPQVCTLPPSRDELTKNQVSLSCAVKGFYPSDIAVEWESNGQPENNYKTTPPVLDSDGSFFLVSKLTVDKSRWQQGNVFSCSVMHEALHNHYTQKSLSLSPG
heavy 2: not shown
Turning to B4, in assay [1], the “HEK-Blue IL-18: Abs 405” value stood at 0.79 Abs and the “HEK-Blue IL-18: Fold over Background” value was 6.6 fold.

B5: DGL222 (bispecific antibody)
heavy 1: QVQLVESGGGLVQAGGSLRLSCAASGRTFSKHAMGWFRQAPGKEREFVAAIDWSGGSTYYADSVKGRFTISRDNAKNTVYLQMDSLKPEDTAVYYCAADSYTDYAQLWLPELESEYDYWGQGTLVTVSSEKSYGPPCPPCPAPEAAGAPSVFLFPPKPKDTLMISRTPEVTCVVVDVSHEDPEVKFNWYVDGVEVHNAKTKPREEQYNSTYRVVSVLTVLHQDWLNGKEYKCKVSNKALPAPIEKTISKAKGQPREPQVCTLPPSRDELTKNQVSLSCAVKGFYPSDIAVEWESNGQPENNYKTTPPVLDSDGSFFLVSKLTVDKSRWQQGNVFSCSVMHEALHNHYTQKSLSLSPGWSHPQFEK
heavy 2: not shown
Turning to B5, in assay [2], the “HEK-Blue IL-18: Abs 405 at 100 nM” value is 1.3 Abs and the “HEK-Blue IL-18: Fold over Background” value amounted to 5.5 fold.

B6: DGL220 (bispecific antibody)
heavy 1: QVQLVESGGGLVQAGGSLRLSCAASGRTFSKHAMGWFRQAPGKEREFVAAIDWSGGSTYYADSVKGRFTISRDNAKNTVYLQMDSLKPEDTAVYYCAADSYTDYAQLWLPELESEYDYWGQGTLVTVSSPLAPCPPCPAPEAAGAPSVFLFPPKPKDTLMISRTPEVTCVVVDVSHEDPEVKFNWYVDGVEVHNAKTKPREEQYNSTYRVVSVLTVLHQDWLNGKEYKCKVSNKALPAPIEKTISKAKGQPREPQVCTLPPSRDELTKNQVSLSCAVKGFYPSDIAVEWESNGQPENNYKTTPPVLDSDGSFFLVSKLTVDKSRWQQGNVFSCSVMHEALHNHYTQKSLSLSPGWSHPQFEK
heavy 2: not shown
For B6, in assay [2], the “HEK-Blue IL-18: Abs 405 at 100 nM” value is 1.5 Abs and the “HEK-Blue IL-18: Fold over Background” value was 6.6 fold.

B7: DGL219 (bispecific antibody)
heavy 1: QVQLVESGGGLVQAGGSLRLSCAASGRTFSKHAMGWFRQAPGKEREFVAAIDWSGGSTYYADSVKGRFTISRDNAKNTVYLQMDSLKPEDTAVYYCAADSYTDYAQLWLPELESEYDYWGQGTLVTVSSPLAPDKTHTCPPCPAPEAAGAPSVFLFPPKPKDTLMISRTPEVTCVVVDVSHEDPEVKFNWYVDGVEVHNAKTKPREEQYNSTYRVVSVLTVLHQDWLNGKEYKCKVSNKALPAPIEKTISKAKGQPREPQVCTLPPSRDELTKNQVSLSCAVKGFYPSDIAVEWESNGQPENNYKTTPPVLDSDGSFFLVSKLTVDKSRWQQGNVFSCSVMHEALHNHYTQKSLSLSPGWSHPQFEK
heavy 2: not shown
For B7, in assay [2], the “HEK-Blue IL-18: Abs 405 at 100 nM” value was found to be 1 Abs and the “HEK-Blue IL-18: Fold over Background” value turned out to be 4.4 fold.

B8: DGL093 (bispecific antibody)
heavy 1: QVQLVESGGGLVQAGGSLRLSCAASGRTFSKHAMGWFRQAPGKEREFVAAIDWSGGSTYYADSVKGRFTISRDNAKNTVYLQMDSLKPEDTAVYYCAADSYTDYAQLWLPELESEYDYWGQGTQVTVSSDKTHTCPPCPAPEAAGGPSVFLFPPKPKDTLMISRTPEVTCVVVDVSHEDPEVKFNWYVDGVEVHNAKTKPREEQYNSTYRVVSVLTVLHQDWLNGKEYKCKVSNKALPAPIEKTISKAKGQPREPQVCTLPPSRDELTKNQVSLSCAVKGFYPSDIAVEWESNGQPENNYKTTPPVLDSDGSFFLVSKLTVDKSRWQQGNVFSCSVMHEALHNHYTQKSLSLSPG
heavy 2: not shown
As for B8, in assay [2], the “HEK-Blue IL-18: Abs 405 at 100 nM” value is 0.9 Abs and the “HEK-Blue IL-18: Fold over Background” value came to 4.1 fold. For the same molecule, in assay [3], the “HEK-Blue IL-18: Abs405 (Emax)” value worked out at 1.38 Abs and the “HEK-Blue IL-18: EC50” value was determined as 8.3 pM. Also, in assay [4], the “HEK-Blue IL-18: Fold over Background” value is 9.2 fold.

B9: DGL161 (bispecific antibody)
heavy 1: EVQLVESGGGLVQPGGSLRLSCAASGFFLDDYVLGWFRQAPGKPREGVSCISSRGRYLNYAETVKGRFTISRSNAKNTVYLQMNNLEPEDTAVYYCAAVRRVSEVCKLAEDDFASWGQGTQVTVSSDKGPSVFPLAPEPKSSQVQLVESGGGLVQAGDSLRLSCVASERTFSSYTMGWFRQAPGKEREFTAALSWWNGGISTAYADSVKGRFTISRDNAKNTVYLQMNSLKTEDTALYYCAAARDRMPRADEYDYWGQGTQVTVSSDKTHTCPPCPAPEAAGGPSVFLFPPKPKDTLMISRTPEVTCVVVDVSHEDPEVKFNWYVDGVEVHNAKTKPREEQYNSTYRVVSVLTVLHQDWLNGKEYKCKVSNKALPAPIEKTISKAKGQPREPQVCTLPPSRDELTKNQVSLSCAVKGFYPSDIAVEWESNGQPENNYKTTPPVLDSDGSFFLVSKLTVDKSRWQQGNVFSCSVMHEALHNHYTQKSLSLSPG
heavy 2: not shown
Take B9: in assay [1], the “HEK-Blue IL-18: Abs 405” value was 0.19 Abs and the “HEK-Blue IL-18: Fold over Background” value came out at 1.6 fold.
